These results are taken from PMC9207808 (ACS Chemical Biology, 2022).

Where “and” joins values, the source holds several entries; their conditions need not be identical. Equal entries are not always repeated. Where two headings read alike, the source gives them in different places. Residues, ends and D or L forms follow the SMILES beside them. No end group written: not given here.

For test [1], the system named is S. Typhimurium (14028) Δphd-doc::Km strains coexpressing DocSTm. Put plainly: Growth rescue experiment in S. Typhimurium. Format: cell-based. The conditions noted are these: coexpression of DocSTm (pBAD33, arabinose) and Phd construct (pCA24N, basal expression); OD600 over time, M9 minimal medium; average of three independent experiments. How it is done: The cotransformations above were also performed with an empty pBAD33 plasmid, as a control for the absence of DocSTm expression.
For the growth rescue experiment, overnight (1% tryptone, 0.5% yeast extract, 0.5% NaCl, 1% glucose, 100 μg/mL of carbenicillin, and 34 μg/mL of chloramphenicol) cultures of the generated S. Typhimurium strains were diluted to an OD600 of approximately 0.006 into fresh M9 minimal medium supplemented with 0.5% or 1% arabinose, 0.4% glycerol, 0.4% casamino acids, 100 μg/mL of carbenicillin, and 34 μg/mL of chloramphenicol. Cell growth at a given time was monitored at OD600 with a Genesys 140 Visible Spectrophotometer (Thermo Scientific).

Test [2] has as its system DocSTm. Put plainly: Differential scanning fluorimetry (thermal stabilisation of Doc). Format: binding, S. Typhimurium. Summed up:
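Tm values come from fitting the sigmoidal melt region to a Boltzmann function. Doc (5 μM final) was ramped 25–95 °C with SYPRO Orange (3× final) in pH 8.0 buffer of 20 mM K2HPO4 and 50 mM (NH4)2SO4; each condition in triplicate.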

Test [3] relates to DocSTm. Put plainly: Surface plasmon resonance binding to immobilised Doc. Also on record: species or system S. Typhimurium. The method, boiled down:
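Binding constants are means ± SD of at least three replicates: steady-state Kd directly, or Kd calculated from kinetic kon and koff. Sensorgrams were double-referenced and fitted 1:1 after 80 s analyte injections (30 μL/min), either multicycle or single-cycle, over NTA-immobilised Doc. Running buffer was HEPES/500 mM NaCl/EDTA/Tween pH 8.0 at 22 °C.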

The subject of test [4] is DocSTm. Put plainly: Dot blot phosphorylation assay (EF-Tu phosphorylation by Doc). Format: biochemical, S. Typhimurium. To be noted: α-pThr, DocSTm 1 μM, EF-TuSTm 3 μM, ATP 1 mM, inhibitor 10 μM to 5 nM (3-fold dilutions), 16 h at RT. The method, boiled down: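 Doc-mediated phosphorylation of EF-Tu was run for 16 h at RT, then the samples were spotted on nitrocellulose. Phospho-EF-Tu was detected with a rabbit monoclonal anti-phosphothreonine antibody and an HRP anti-rabbit secondary, read by chemiluminescence.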

Test [5] concerns the target Doc1-122–His6 (DocSTm toxin) (Salmonella typhimurium). Put plainly: SPR; Biacore S200; Doc-His6 captured on a Series S NTA chip (200-400 RU); peptide as analyte, single-cycle kinetics, six concentrations (3-fold dilutions), 30 uL/min; 22 C; 10 mM HEPES, 500 mM NaCl, 50 uM EDTA, 0.005% TWEEN 20, pH 8.0; kinetic 1:1 fit.
Test [6] shares this target. Described as above. This is another data set of the same source.
The target is the same in test [7]. The description is as above. This is another data set of the same source.
Test [8] shares this target. Described as above. The source holds these as a separate data set.
Test [9] has the same target. The test is described as above. The source holds these as a separate data set.
Test [10] has the same target. Described as above. The source holds these as a separate data set.
For test [11] the target is unchanged. The test is described as above. This is another data set of the same source.
Test [12] concerns the target Doc toxin of Salmonella enterica serovar Typhimurium (DocSTm) (Salmonella enterica serovar Typhimurium). Put plainly: SPR; DocSTm immobilised on a Series S NTA chip (150 nM, 200-400 RU); analytes in single-cycle kinetics, typically six concentrations, kinetic 1:1 fit; 22 °C; 10 mM HEPES, 500 mM NaCl, 50 μM EDTA, 0.005% TWEEN 20, pH 8.0. For orientation: Surface plasmon resonance follows binding to a sensor surface in real time, without labels.

In test [13] the target is Doc1-122–His6 (DocSTm toxin) (Salmonella typhimurium). Put plainly: SPR; Biacore S200; Doc-His6 captured on a Series S NTA chip (200-400 RU); peptide as analyte, single-cycle kinetics, six concentrations (3-fold dilutions), 30 uL/min; 22 C; 10 mM HEPES, 500 mM NaCl, 50 uM EDTA, 0.005% TWEEN 20, pH 8.0; kinetic 1:1 fit. This is another data set of the same source.

The term Kd denotes the free concentration of one partner at which half of the binding sites on the other are occupied at equilibrium, for simple one-to-one binding. In the case of `CC[C@H](C)[C@H](NC(=O)[C@H](C)NC(=O)[C@H](C)NC(=O)[C@H](Cc1ccccc1)NC(=O)[C@H](CCC(=O)O)NC(=O)[C@H](CC(=O)O)NC(=O)[C@H](CC(=O)O)NC(=O)[C@H](CCSC)NC(=O)[C@H](Cc1c[nH]c2ccccc12)NC(C)=O)C(=O)N[C@@H](CCSC)C(=O)N[C@@H](C)C(=O)N[C@H](C(=O)N[C@@H](Cc1c[nH]cn1)C(=O)NCC(=O)N[C@@H](CC(N)=O)C(=O)N[C@@H](CCC(=O)O)C(=O)N[C@@H](CC(C)C)C(=O)N[C@@H](CCCNC(=N)N)C(=O)N[C@@H](CCC(=O)O)C(=O)N[C@@H](C)C(=O)N[C@@H](C)C(=O)N[C@@H](CC(=O)O)C(=O)N[C@@H](CCCCN)C(=O)O)C(C)C` [peptide 17] (Ac-WMDDEFAAIMAVHGNELREAADK-OH; C-terminus assumed), the “rescue of Salmonella growth from DocSTm-induced growth inhibition (in words)” value in test [1] is listed as “not able to counteract DocSTm-induced growth inhibition of Salmonella”. In addition, the “melting temperature shift ΔTm” value in the test with DocSTm [2] (DSF, DocSTm 5 μM, analyte 50 μM, Tm with analyte minus Tm of free DocSTm (42.9 ± 0.9 °C), SYPRO Orange, 20 mM K2HPO4, 50 mM (NH4)2SO4, pH 8.0, triplicate) was 15.2 ± 1.0 °C. In addition, the “Average Tm” value in the test on DocSTm [2] (DocSTm 5 µM + 50 µM binder, average of 3 replicates) was 58.0 ± 0.4 °C. Moreover, the Tm with DocSTm [2] (DocSTm 5 µM + 50 µM binder, replicate 1) amounted to 58.5 °C; in the test with DocSTm [2] (DocSTm 5 µM + 50 µM binder, replicate 2) it was 57.9 °C; with DocSTm [2] (DocSTm 5 µM + 50 µM binder, replicate 3) it was 57.8 °C. In addition, the “affinity to DocSTm greater than that of peptides 7, 10 and 14” value in the test on DocSTm [3] (SPR Kd ratio) is “at least 12 fold”. For the same molecule, the “fold decrease in affinity (given as decrease/loss in Kd) compared with peptide 1” value in the test with DocSTm [3] (SPR Kd relative to wild-type peptide 1) is 8- to 30 fold. Besides, the Kd at DocSTm [3] (SPR kinetic fit, replicate 1) is 2.1 nM; at DocSTm [3] (SPR kinetic fit, replicate 2), 1.98 nM; at DocSTm [3] (SPR kinetic fit, replicate 3) it was 1.02 nM; on DocSTm [3] (SPR, kinetic fit, KD calculated from mean koff and kon, SD propagated, 22 °C, pH 8.0), 1.55 ± 0.58 nM. For the same molecule, the “koff × 10^-6” value in the test with DocSTm [3] (SPR, 1:1 kinetic fit, 22 °C, pH 8.0, mean ± SD of at least 3 replicates) is on record as 5967 ± 404 ×10^-6 s-1. For the same molecule, the “kon × 10^6” value with DocSTm [3] (SPR, 1:1 kinetic fit, single-cycle kinetics (multicycle for PhdSTm1-73), 22 °C, pH 8.0, mean ± SD of at least 3 replicates) is 3.837 ± 1.398 ×10^6 M-1 s-1. Also, the “Half-life of the complex” value in the test on DocSTm [3] (t1/2 = ln2 / koff) is 1.92 ± 0.12 min. The “inhibition of EF-TuSTm phosphorylation by DocSTm (in words)” value with DocSTm [4] is “among the poorest inhibitors of EF-TuSTm phosphorylation”.
What is called koff is a measure of how fast the partners let go of each other. Usually kon stands for the second-order rate constant of association. Consider peptide 4 (PhdSTm52-73-D54A), for which, in test [5], the koff is 6.2e-05 s⁻¹ and the kon was determined as 4.73e+06 M⁻¹ s⁻¹. For the same molecule, in [6], the Kd was 0.0128 nM and 0.0166 nM and 0.0101 nM; the koff was 8.12e-05 s⁻¹ and 4.76e-05 s⁻¹ and 5.84e-05 s⁻¹; the kon is 4.89e+06 M⁻¹ s⁻¹ and 4.73e+06 M⁻¹ s⁻¹ and 4.58e+06 M⁻¹ s⁻¹.
In the case of peptide 5 (PhdSTm52-73-E55A), in test [5], the Kd was 0.049 nM, the koff turned out to be 7.5e-05 s⁻¹ and the kon came to 1.54e+06 M⁻¹ s⁻¹. Also, in test [7], the Kd was 0.0489 nM and 0.0513 nM and 0.0469 nM; the koff was 7.11e-05 s⁻¹ and 7.49e-05 s⁻¹ and 8.02e-05 s⁻¹; the kon was 1.5e+06 1/(M s) (2×) and 1.7e+06 1/(M s).
peptide 6 (PhdSTm52-73-F56A): in [5], the koff worked out at 0.000843 s⁻¹ and the kon worked out at 989000 M⁻¹ s⁻¹. Further, in [8], the Kd was 1 nM and 0.919 nM and 0.745 nM; the off-rate constant (koff) was 0.000717 s⁻¹ and 0.000702 s⁻¹ and 0.00111 s⁻¹; the kon is 714000 M⁻¹ s⁻¹ and 764000 M⁻¹ s⁻¹ and 1.49e+06 M⁻¹ s⁻¹.
In test [5], peptide 8 (PhdSTm52-73-M60A) came in with a Kd of 0.553 nM, a koff of 0.00122 s⁻¹ and a kon of 2.22e+06 M⁻¹ s⁻¹. Besides, in test [9], the Kd is 0.67 nM and 0.611 nM and 0.485 nM; the koff is 0.000966 s⁻¹ and 0.00091 s⁻¹ and 0.00181 s⁻¹; the kon is 1.44e+06 M⁻¹ s⁻¹ and 1.49e+06 M⁻¹ s⁻¹ and 3.73e+06 M⁻¹ s⁻¹.
peptide 9 (PhdSTm52-73-V62A): in test [10], the Kd is 0.183 nM and 0.239 nM and 0.132 nM; the koff was 0.000329 s⁻¹ and 0.000394 s⁻¹ and 0.000442 s⁻¹; the kon is 1.8e+06 M⁻¹ s⁻¹ and 1.65e+06 M⁻¹ s⁻¹ and 3.35e+06 M⁻¹ s⁻¹. In test [5], the Kd is 0.171 nM, the koff turned out to be 0.000388 s⁻¹ and the kon is 2.27e+06 M⁻¹ s⁻¹.
Consider peptide 11 (PhdSTm52-73-G64A), for which, in [11], the Kd was 0.13 nM and 0.0743 nM and 0.0769 nM; the koff was 1.42e-05 s⁻¹ and 2.28e-05 s⁻¹ and 2.23e-05 s⁻¹; the kon was 1.08e+06 M⁻¹ s⁻¹ and 3.07e+06 M⁻¹ s⁻¹ and 2.9e+06 M⁻¹ s⁻¹. For the same molecule, in test [5], the Kd is 0.084 nM, the koff amounted to 0.000197 s⁻¹ and the kon is 2.35e+06 M⁻¹ s⁻¹.
In [12], Ac-WMADEFAAIMAVHGNELRELADK [peptide 3 (Phd 52-73 D53A)] gave a Kd of 0.013 nM, a fold improvement of koff against peptide 1 of 1.5 fold and a fold improvement of kon against peptide 1 of 4 fold.
The matching figures for Ac-WMDAEFAAIMAVHGNELRELADK [peptide 4 (Phd 52-73 D54A)]: 0.013 nM, 1.5 fold and 4 fold.
Take Ac-EFAAIMAVHGNELRELADK-OH [peptide 21 (PhdSTm55-73)]: in test [13], the Kd was 0.41 nM and 0.412 nM and 0.365 nM; the koff was 0.000551 s⁻¹ and 0.000501 s⁻¹ and 0.000436 s⁻¹; the kon is 1.3e+06 1/(M s) and 1.2e+06 1/(M s) (2×). In test [5], this molecule gave a Kd of 0.396 nM, a koff of 0.000496 s⁻¹ and a kon of 1.25e+06 M⁻¹ s⁻¹.
The molecule Ac-WMDDEAAAIMAVHGNELRELADK [peptide 6 (Phd 52-73 F56A)] came in with a Kd in test [12] of 0.852 nM.
For Ac-EFAAIMAVHGNELRELA-OH [peptide 22 (PhdSTm55-71)], in [13], the Kd is 0.342 nM and 0.336 nM and 0.365 nM; the koff is 0.000521 s⁻¹ and 0.000492 s⁻¹ and 0.000495 s⁻¹; the kon is 1.5e+06 1/(M s) (2×) and 1.4e+06 1/(M s). Also, in test [5], the koff amounted to 0.000503 s⁻¹ and the kon came out at 1.45e+06 M⁻¹ s⁻¹.
In [12], Ac-WMDDEFAAIMAVHGNELREAADK [peptide 17 (Phd 52-73 L70A)] had a Kd of 1.55 nM.
On to Ac-FAAIMAVHGNELREL-OH [peptide 23 (PhdSTm56-70)], for which, in [13], the Kd is 1.85 nM and 1.94 nM and 2.18 nM; the koff was 0.00284 s⁻¹ and 0.00279 s⁻¹ and 0.00276 s⁻¹; the kon was 1.53e+06 M⁻¹ s⁻¹ and 1.44e+06 M⁻¹ s⁻¹ and 1.26e+06 M⁻¹ s⁻¹. In test [5], this molecule showed a koff of 0.00279 s⁻¹ and a kon of 1.41e+06 M⁻¹ s⁻¹.
